Assay results published in paper PMC4885022, “Structural Analysis of dsRNA Binding to Anti-viral Pattern Recognition Receptors LGP2 and MDA5” (Molecular Cell, 2016).

Columns and labels:
hLGP2 = target: T1, hLGP2 (Homo sapiens, UniProt Q96C10); test: malachite green ATPase assay; type: biochemical; conditions: dsRNA-dependent
T1 construct: gene DHX58; construct not described in main text
T1 sequence (Q96C10 1-678): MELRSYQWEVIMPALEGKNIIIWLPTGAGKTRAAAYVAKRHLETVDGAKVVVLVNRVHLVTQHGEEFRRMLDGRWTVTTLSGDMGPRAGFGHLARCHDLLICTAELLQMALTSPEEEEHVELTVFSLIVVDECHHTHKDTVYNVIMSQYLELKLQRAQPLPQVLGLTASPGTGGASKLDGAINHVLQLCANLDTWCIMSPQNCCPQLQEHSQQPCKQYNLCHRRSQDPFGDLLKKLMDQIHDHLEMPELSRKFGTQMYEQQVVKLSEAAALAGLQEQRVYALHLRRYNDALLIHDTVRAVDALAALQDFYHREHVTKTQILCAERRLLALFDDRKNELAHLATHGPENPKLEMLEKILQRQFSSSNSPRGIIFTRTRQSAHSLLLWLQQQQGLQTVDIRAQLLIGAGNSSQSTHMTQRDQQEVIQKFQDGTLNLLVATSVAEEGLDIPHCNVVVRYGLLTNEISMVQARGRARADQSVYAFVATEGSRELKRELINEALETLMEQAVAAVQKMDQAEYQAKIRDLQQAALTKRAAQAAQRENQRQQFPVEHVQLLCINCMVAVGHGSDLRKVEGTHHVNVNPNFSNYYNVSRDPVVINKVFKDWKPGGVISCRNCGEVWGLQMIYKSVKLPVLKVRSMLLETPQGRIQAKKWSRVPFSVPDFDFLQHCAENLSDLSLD

chLGP2 [1] = target: T2, chLGP2 (chicken, UniProt G0YYQ5 1-674); test: crystal structure; ADP:AlF4, Mg2+; Fluorescence anisotropy: 5'-FAM 12-mer annealed to unlabeled complement, protein titrated, ex 495 / em 515 nm, fit with Hill coefficient (n=1 for RIG-I); buffer, salt, pH and temperature not in the material; conditions: protein: recombinant, tags: SUMO fusion
T2 sequence: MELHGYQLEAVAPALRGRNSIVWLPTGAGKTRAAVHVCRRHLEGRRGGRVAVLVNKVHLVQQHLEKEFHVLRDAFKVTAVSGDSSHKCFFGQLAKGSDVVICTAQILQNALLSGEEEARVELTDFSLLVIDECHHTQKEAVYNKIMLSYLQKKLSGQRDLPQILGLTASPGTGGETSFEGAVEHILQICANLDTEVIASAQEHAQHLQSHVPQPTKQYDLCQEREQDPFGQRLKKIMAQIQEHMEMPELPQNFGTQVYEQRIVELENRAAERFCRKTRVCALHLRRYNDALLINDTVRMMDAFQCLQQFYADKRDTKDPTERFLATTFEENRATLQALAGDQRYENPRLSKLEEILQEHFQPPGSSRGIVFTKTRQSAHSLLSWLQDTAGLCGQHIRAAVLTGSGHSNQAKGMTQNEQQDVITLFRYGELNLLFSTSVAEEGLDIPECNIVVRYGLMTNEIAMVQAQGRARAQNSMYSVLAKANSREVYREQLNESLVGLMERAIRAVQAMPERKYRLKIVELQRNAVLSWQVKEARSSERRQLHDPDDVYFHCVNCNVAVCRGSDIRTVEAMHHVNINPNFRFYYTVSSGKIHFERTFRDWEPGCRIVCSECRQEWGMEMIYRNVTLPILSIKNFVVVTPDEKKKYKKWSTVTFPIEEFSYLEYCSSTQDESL

chLGP2 [2] = target: T2, chLGP2; test: crystal structure; no nucleotide; Fluorescence anisotropy: 5'-FAM 12-mer annealed to unlabeled complement, protein titrated, ex 495 / em 515 nm, fit with Hill coefficient (n=1 for RIG-I); buffer, salt, pH and temperature not in the material; conditions: protein: recombinant; tags: SUMO fusion; 2 copies of self-complementary strand
chLGP2 [3] = target: T2, chLGP2; test: fluorescence anisotropy; Fluorescence anisotropy: 5'-FAM 12-mer annealed to unlabeled complement, protein titrated, ex 495 / em 515 nm, fit with Hill coefficient (n=1 for RIG-I); buffer, salt, pH and temperature not in the material; conditions: protein: recombinant; tags: SUMO fusion; label: 5'-FAM on one strand; 5' overhang
chLGP2 [4] = target: T2, chLGP2; test: fluorescence anisotropy; affinity independent of bound nucleotide; Fluorescence anisotropy: 5'-FAM 12-mer annealed to unlabeled complement, protein titrated, ex 495 / em 515 nm, fit with Hill coefficient (n=1 for RIG-I); buffer, salt, pH and temperature not in the material; conditions: protein: recombinant; tags: SUMO fusion; label: 5'-FAM on one strand; blunt
chLGP2 [5] = target: T2, chLGP2; test: fluorescence anisotropy; same affinity as 5'OH; Fluorescence anisotropy: 5'-FAM 12-mer annealed to unlabeled complement, protein titrated, ex 495 / em 515 nm, fit with Hill coefficient (n=1 for RIG-I); buffer, salt, pH and temperature not in the material; conditions: protein: recombinant; tags: SUMO fusion; label: 5'-FAM on one strand; blunt
hRIG-I = target: T3, hRIG-I (human, UniProt O95786 1-925); test: fluorescence anisotropy; ADP:AlF4; Fluorescence anisotropy: 5'-FAM 12-mer annealed to unlabeled complement, protein titrated, ex 495 / em 515 nm, fit with Hill coefficient (n=1 for RIG-I); buffer, salt, pH and temperature not in the material; conditions: protein: recombinant; label: 5'-FAM on one strand; blunt
T3 sequence: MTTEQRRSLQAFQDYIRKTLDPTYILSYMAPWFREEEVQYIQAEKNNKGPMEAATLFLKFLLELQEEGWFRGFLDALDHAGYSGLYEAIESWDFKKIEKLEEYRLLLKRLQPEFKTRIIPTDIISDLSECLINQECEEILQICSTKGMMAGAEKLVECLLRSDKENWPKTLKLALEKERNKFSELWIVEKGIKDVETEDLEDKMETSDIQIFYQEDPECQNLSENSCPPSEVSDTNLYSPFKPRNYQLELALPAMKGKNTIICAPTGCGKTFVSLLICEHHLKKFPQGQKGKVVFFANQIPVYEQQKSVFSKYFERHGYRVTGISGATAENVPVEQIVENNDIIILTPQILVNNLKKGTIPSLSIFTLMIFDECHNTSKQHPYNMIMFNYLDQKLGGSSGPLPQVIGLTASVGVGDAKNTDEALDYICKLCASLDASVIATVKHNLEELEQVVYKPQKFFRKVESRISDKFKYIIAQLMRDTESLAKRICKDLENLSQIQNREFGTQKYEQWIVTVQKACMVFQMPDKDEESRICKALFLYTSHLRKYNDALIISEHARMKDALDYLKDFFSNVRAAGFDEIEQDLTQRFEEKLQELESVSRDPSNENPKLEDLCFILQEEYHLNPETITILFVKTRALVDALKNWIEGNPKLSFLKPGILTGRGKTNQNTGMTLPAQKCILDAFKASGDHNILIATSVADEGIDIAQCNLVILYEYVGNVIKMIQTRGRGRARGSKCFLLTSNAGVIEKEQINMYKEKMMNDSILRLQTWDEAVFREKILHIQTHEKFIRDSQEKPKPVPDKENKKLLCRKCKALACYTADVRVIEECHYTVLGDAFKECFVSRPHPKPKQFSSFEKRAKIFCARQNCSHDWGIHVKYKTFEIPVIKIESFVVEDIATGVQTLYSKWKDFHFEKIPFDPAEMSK

[6] = blunt, 2 copies of self-complementary strand

`Nc1ncnc2c1ncn2[C@@H]1O[C@H](COP(=O)(O)OP(=O)(O)OP(=O)(O)O)[C@@H](O)[C@H]1O` [ATP] was tested, and the “malachite green ATPase assay” value (hLGP2) was “both chLGP2 and hLGP2 ATPase activity is strictly dsRNA dependent”.

GGAGCGUGCCGUACGGCACGCUCCGG (structured_RNA, 5' triphosphate) [5'ppp 26-mer hairpin with 3' GG overhang]: binds (chLGP2 [1]; hairpin, 3' overhang 2 nt (GG)).

B1: 5'p 10-mer palindromic dsRNA (dsRNA)
RNA 1: GGUACGUACC
RNA 2: GGUACGUACC
modifications: 5' monophosphate
B1: binds (chLGP2 [1]; [6]).

B2: 5'p 12-mer palindromic dsRNA (dsRNA)
RNA 1: GGUAGCGCUACC
RNA 2: GGUAGCGCUACC
modifications: 5' monophosphate
B2: binds (chLGP2 [2]).

B3: 5'ppp 10-mer palindromic dsRNA (dsRNA)
RNA 1: GGUACGUACC
RNA 2: GGUACGUACC
modifications: 5' triphosphate
B3: binds (chLGP2 [1]; [6]).

B4: 5' overhang dsRNA (anisotropy) (dsRNA)
RNA 1: AACCGGUCACGC
RNA 2: AAGCGUGACCGG
B4 was tested, and the binding signal (chLGP2 [3]) was ~2 fold lower affinity than blunt end.

B5: 5'OH 12-mer blunt dsRNA (anisotropy) (dsRNA)
RNA 1: GGGCUCCACAUG
RNA 2: CAUGUGGAGCCC
B5: binds (chLGP2 [4]).

B6: 5'ppp 12-mer blunt dsRNA (anisotropy) (dsRNA)
RNA 1: GGGCUCCACAUG
RNA 2: CAUGUGGAGCCC
modifications: 5' triphosphate
With B6 the binding result (chLGP2 [5]) was “binds” and the Kd (hRIG-I) was about 1 nM.
